Test results: patent publication US20180250415A1 (Scripps Research, published 2018)

T1: CD138 (human, UniProt P18827 23-310)
T1 construct: whole, on cells; also called CD138 on H929 and U266 cells
T1 sequence (looked up): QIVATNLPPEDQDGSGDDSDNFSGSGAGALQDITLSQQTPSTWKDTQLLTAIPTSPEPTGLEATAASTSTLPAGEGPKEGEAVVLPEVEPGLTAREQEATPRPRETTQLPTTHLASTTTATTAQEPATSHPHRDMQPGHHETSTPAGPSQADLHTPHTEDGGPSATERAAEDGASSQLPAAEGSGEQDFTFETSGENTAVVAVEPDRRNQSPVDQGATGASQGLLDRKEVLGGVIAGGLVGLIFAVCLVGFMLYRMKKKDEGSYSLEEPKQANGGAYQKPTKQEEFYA

T2: CD79b (UniProt P40259 29-229, limits assumed)
T2 construct: whole, on cells; also called CD79b on Ramos cells
T2 sequence (looked up): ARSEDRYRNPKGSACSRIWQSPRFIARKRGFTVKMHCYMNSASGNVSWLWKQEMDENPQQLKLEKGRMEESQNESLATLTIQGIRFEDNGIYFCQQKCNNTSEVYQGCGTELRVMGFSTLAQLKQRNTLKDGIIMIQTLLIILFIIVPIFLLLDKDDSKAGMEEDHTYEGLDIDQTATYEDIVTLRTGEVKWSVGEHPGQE


How the values were obtained:
[1] = target: T1, CD138; assay: flow cytometry on H929 and U266 (CD138+) cells, detected with 647-conjugated F(ab')2 donkey anti-human Fc [CONT.]
Description: (§1) The binding activities of these DVDs are also tested against target expressing cells. […] The cells are washed with 200 μL flow cytometry buffer (PBS, 2% (w/v) FBS, pH 7.4), are incubated with DVD1 or DVD2 for 30 min on ice, are washed with 200 μL flow cytometry buffer, and are stained with 647 conjugated polyclonal (Fab′)₂ donkey anti-human Fc (Jackson ImmunoResearch Laboratories) for 20 min on ice. After washing twice with 200 μL ice-cold flow cytometry buffer, the cells are analyzed using a Canto II Flow Cytometer (Becton-Dickinson). Data were analyzed using FlowJo software (Tree Star).

[2] = target: T3, HER2 (human, UniProt P04626 23-1255); assay: flow cytometry on SK-BR-3 (SKBR3, HER2+) cells, detected with 647-conjugated F(ab')2 donkey anti-human Fc
T3 construct: whole, on cells; also called ERBB2; HER2 on SK-BR-3 (SKBR3) cells
Description: as §1

[3] = target: T2, CD79b; assay: flow cytometry on Ramos (CD79b+) cells, detected with 647-conjugated F(ab')2 donkey anti-human Fc [CONT.]
Description: as §1

Row | binding result [1] | binding result [2] | binding result [3] | Binder
1 | binds | – | – | CD138-h38C2-DVD1 immunoglobulin (antibody, human IgG1, kappa, also called CD138 DVD; anti-CD138 DVD1) light: DIQMTQSTSSLSASLGDRVTISCSASQGINNYLNWYQQKPDGTVELLIYYTSTLQSGVPSRFSGSGSGTDYSLTISNLEPEDIGTYYCQQYSKLPRTFGGGTKLEIKASTKGPELQMTQSPSSLSASVGDRVTITCRSSQSLLHTYGSPYLNWYLQKPGQSPKLLIYKVSNRFSGVPSRFSGSGSGTDFTLTISSLQPEDFAVYFCSQGTHLPYTFGGGTKVEIKRTVAAPSVFIFPPSDEQLKSGTASVVCLLNNFYPREAKVQWKVDNALQSGNSQESVTEQDSKDSTYSLSSTLTLSKADYEKHKVYACEVTHQGLSSPVTKSFNRGEC heavy: not shown
2 | no binding | no binding | no binding | h38C2 IgG1 (antibody, V domains shown, also called parent h38C2 IgG1; unconjugated humanized 38C2 antibody) VH: EVQLVESGGGLVQPGGSLRLSCAASGFTFSNYWMSWVRQSPEKGLEWVSEIRLRSDNYATHYAESVKGRFTISRDNSKNTLYLQMNSLRAEDTGIYYCKTYFYSFSYWGQGTLVTVSS VL: ELQMTQSPSSLSASVGDRVTITCRSSQSLLHTYGSPYLNWYLQKPGQSPKLLIYKVSNRFSGVPSRFSGSGSGTDFTLTISSLQPEDFAVYFCSQGTHLPYTFGGGTKVEIK
